Earlier results on one molecule are cited in patent publication US6446032B1, “Designing compounds specifically inhibiting ribonucleic acid by binding to the minor groove” (Massachusetts Institute of Technology, priority 1990, dated 2002).

The data set concerns normal cells as well as tumor cells. The settings on record: binds and cleaves all rRNAs.

B1: Alpha-sarcin: cytotoxic protein with potent antisarcoma activity, isolated from a mold, that inactivates ribosomes by cleaving the rRNA (protein, UniProt P00655 28-177, looked up)
Ribonuclease alpha-sarcin: AVTWTCLNDQKNPKTNKYETKRLLYNQNKAESNSHHAPLSDGKTGSSYPHWFTNGYDGDGKLPKGRTPIKFGKSDCDRPPKHSKDGNGKTDHYLLEFPTFPDGHDYKFDSKKPKENPGPARVIYTYPNKVFCGIIAHTKENQGELKLCSH
For the molecule B1, the toxicity to cells result is listed as “highly toxic to normal cells as well as tumor cells”.
